# Experiment: yeast display, Sf9 membrane polyspecificity reagent, FACS + sequencing; frameworks hold sequencing errors
# How it was run: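 Synthetic nanobody libraries on Saccharomyces cerevisiae BJ5465 were galactose-induced for 36–48 hours, stained 1 hour at 4 °C with 10% biotinylated, detergent-solubilized Sf9 membrane reagent and enriched on streptavidin microbeads. FACS then separated cells into low and high (top ~1%) gates by anti-HA (expression) and streptavidin (reagent binding) fluorescence. Genes were colony-PCR amplified, MiSeq 2 × 250 sequenced and CDR-length filtered. A clone's polyreactivity label is that of its gate of origin.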
row,Sequence,polyreactivity (PSR sort gate)
1,QVQLVESGGGLVQAGGSLRLSSAASGRTFDAYAMGWNRQAPGKERELVAAISGRGGSTTYADSVKGRFTISRDNAKNTVYLQMNSLKPEDTAVYYCAARYPPRFGVVRGYSRSGYWGQGTQVTVSS,high polyreactivity
2,QVQLVESGGGLVQAGGSLRLSSAASGRTFEVYAMGWYRQAPGKERELVATITYSGGITYYADSVKGRFTISRDNAKNTVYLQMNSLKPEDTAVYYPIGVGGDYDYWGQGTQVTVSS,low polyreactivity
3,QVQLVESGGGLVQAGGSLRLSSAASGRTFGFNPMGWYRQAPGKERELVAAISSSSSSTYYADSVKGRFTISRDNAKNTVYLQINSLKPEDTAVYYCAKQEPYPFGGYYEYDYWGQGTQVTVSS,low polyreactivity
4,QVQLVESGGGLVQAGGSLRLSSAASGRTFHANAMGWYRQAPGKERELVARINWSGTSTYYADSVKGRFTISRDNAKNTVYLQMNSLKPEDTAVYYCAAGWIRLYSSLYDYWGQGTQVTVSS,high polyreactivity
5,QVQLVESGGGLVQAGGSLRLSSAASGRTFPSYDMGWYRQAPGKERELVAAISSSGGSTYYADSVKGRFTISRDNAKNTVYLQMNSLKPEDTAVYYCAAATPSGYYYWGQGTQVTVSS,high polyreactivity
6,QVQLVESGGGLVQAGGSLRLSSAASGRTFQYYAMGWYRQAPGKERELVAAIDSSGGSTYYADSVKGRFTISRDNAKNTVYLQMNSLKPEDTAVYYCIAGRYRYYYYGYDYWGQGTQVTVSS,high polyreactivity
7,QVQLVESGGGLVQAGGSLRLSSAASGRTFRYNAMGWYRQAPGKERELVAAIRRGGSTNYADSVKGRITISRDNAKNTVYLQMNSLKPEDTAFYFCAKGHPNDFGYWGQGTQVTVSS,high polyreactivity
8,QVQLVESGGGLVQAGGSLRLSSAASGRTFTRYTMGWYRQAPGKERELVAAIRYSGGSTYYADSVKGRFTISRDNAKNTVYLQMNSLKPEDTAVYYCAARSYYYGFLYRYDYWGQGTQVTVSS,low polyreactivity
9,QVQLVESGGGLVQAGGSLRLSSAASGRTFWRYGMGWYRQAPGKERELVAAITDSGDSTYYADSVKGRFTISRDNAKNTVYLQMNSLKPEDTAVYYCAASDVVFALNGYYPGEDDYWGQGTQVTVSS,low polyreactivity
10,QVQLVESGGGLVQAGGSLRLSSAASGRTFYSNAMGWYRQAPGKERELVAGISKSGGITYYADSVKGRFTISRDNAKNTVYLQMNRLKPEDTAVYYCAARRRGRFYYWGQGTQVTVSS,high polyreactivity
11,QVQLVESGGGLVQAGGSLRLSSAASGSIFGDYAMGWYRQSPGKERELVAAISSDGSTNYADSVKGRFTISRDNAKNTVYLQMNSLKPEDTAVYYCAADTGGWYFYSYYYWGQGTQVTVSS,low polyreactivity
12,QVQLVESGGGLVQAGGSLRLSSAASGSIFRVNAMGWYRQAPGKERELVAAISTSGGNTYYADSVKGRFTISRDNAKNTVYLQMNSLKPEDTAVYYCNAPWSSFNGFTGRYDYWGQGTQVTVSS,low polyreactivity
13,QVQLVESGGGLVQAGGSLRLSSAASGSIFRYNAMGWYRPAPGKERELVAAITSSGGSTYYADSVKGRFTISRDNAKNTVYLQMNSLKPEDTAVYYCAAVRRRVHYPYDYWGQGTQVTVSS,high polyreactivity
14,QVQLVESGGGLVQAGGSLRLSSAASGSIFRYNAMGWYRQAPGKERELFAAISYRGGRTYYADSVKGRFTISRDNAKNTVYLQMNSLKPEDTAVYYCNADSIYSARGWLYGYWGQGTQVTVSS,low polyreactivity
15,QVQLVESGGGLVQAGGSLRLSSAASGSIFSQNAMVWYTQAPGKERELVASISSGDSTTYADSVKGRFTISRDNAKNTVYLQMNSLKPEDTAVYYCNAYRYNALPWRYVGYDYWGQGTQVTVSS,low polyreactivity
16,QVQLVESGGGLVQAGGSLRLSSAASGSIFYGNSMGWYRQAPGKERELVAAISQSGGSTYYADSVKGRFTISRDNAKNTVYLQMNSLKPEDTAVYYCAAYTPYATWRYDYWGQGTQVTVSS,low polyreactivity
17,QVQLVESGGGLVQAGGSLRLSSAASGSIFYRYAMGWYRQAPGKERELVAVISRGGSTNYADSVKGRFTISRDNAKNTVYLQMNSLKPEDTAVYYCAAGGYSKGDYWGQGTQVTVSS,high polyreactivity
18,QVQLVESGGGLVQAGGSLRLSSAASGSILPYYAMGWYRQAPGKESELVATITSRGGSTYYADSVKGRFTISRDNAKNTVYLQMNSLKPEDTAVYYCAKEYRYYRRRYDYCGQGTQVTVSS,high polyreactivity
19,QVQLVESGGGLVQAGGSLRLSSAASGSILTINAMGWYRLAPGKERELVARITISSGSTYYADSVKGRFTISRDNAKNTVYLQLNSLKPEDTAVYYCAKLRYPYLFWDDSEYWGQGTQVTVSS,low polyreactivity
20,QVQLVESGGGLVQAGGSLRLSSAASGSNFPTNAMGWYRQAPGKETELVAAITDGGSTNYADSVKGRFTISRDNAKNTVYLQMNSLKPEDTAVYYCAAVGFKTVLPEYDYWGKGTQVTVSS,low polyreactivity
21,QVQLVESGGGLVQAGGSLRLSSAASGSTFFLYGMRWYSQPPGKERQLVAAITWNGGSTSYADSVKGRFTISRDIAKFTVYLQMNSLKPEDTAVYYWAADYYGYFSTAYEYWGQGTQVTVSS,low polyreactivity

row,Sequence,polyreactivity (PSR sort gate)
1,QVQLVESGGGLVQAGGSLRLSSAASGSTFFSYAMGWYRQAPGKERELVAAISWIDDGTYYADSVKGRFTISRDNAKNTVYLQMNSLKPEDTAVYYCAADIGAYRTWDYEYWGQGTQVTVSS,low polyreactivity
2,QVQLVESGGGLVQAGGSLRLSSAASGSTFGPYAMGWYRQAPGKERELVAAISRRGTSTYYADSVKGRFTISRDNAKNTVYLQMNSLKPEDTAVYYCNAVTSSFFNRDSDYWGQGNQVTVSS,high polyreactivity
3,QVQLVESGGGLVQAGGSLRLSSAASGSTFPVYALGWYRQAPGKERELVAAITRTGARTYYADSVKGRFTISRDNAKNTVYLQMNSLTPEDTAVYYCAARGAGGILGRYGYWGQGTKVTVSS,high polyreactivity
4,QVQLVESGGGLVQAGGSLRLSSAASGSTFRRNAMGWYRQAPGKQRELVAAITWRGTSTYYADSVKGRFTISRDNAKNTVYLQMNSLKPEDTAVDYCAAPWVVRRTAYDYWGQGTQVTVSS,high polyreactivity
5,QVQLVESGGGLVQAGGSLRLSSAASGSTIFLYDMGWYRQAPGKERELVAAITISGGSTYYADSVKGRFTISRDNAKNTVYLQMNSLKPEDTAVYYCAVRTYRFRHWPKYDYWGQGTQVTVSS,high polyreactivity
6,QVQLVESGGGLVQAGGSLRLSSAASGSTVPRYAMGWDRQAPGKERAFVAVIWSGGSTYYAVSVKGRFTISRDNAKNTVYLQMNSLKPEDTAVYYCAAEYHTLSKYSGYATHDYWGQGTQVTVSS,low polyreactivity
7,QVQLVESGGGLVQAGGSLRLSSAASGTTFAPNAMGWYRPAPGKERELVAAISSGGDSTNYADSVKGRFTISRDNAKNTVYLQLNSLKPEDTAVYYCAAHYVEREYDYWGQGTQVTVSS,low polyreactivity
8,QVQLVESGGGLVQAGGSLRLSSAASRSTFTVYAMGWYRQAPGKETELVAAITGGGRTYYADSVKGRFTISRDNAKNTVYLQMNSLKPEDTAVYYCAKKYSWRYARVYSLHFDYWGQGTQVTVSS,high polyreactivity
9,QVQLVESGGGLVQAGGSLRLSSADSGRTFRYYAMRWYRPAPGKERELVAAITRGGRTNYADSVKGRFTISRDNAKNTVYLQMNSLKPEDTAVYYCAAVLYTPNKYASYYWGQGTQVTVSS,high polyreactivity
10,QVQLVESGGGLVQAGGSLRLSSAPSGSTFYGYSRGWYRPAPGKERELVAAISSRGGSTKYADSVKGRFTISRDNAKNTVYLQMNSLKPEDTAVYYCAATSRSSRRYYYWGQGTQVTVSS,high polyreactivity
11,QVQLVESGGGLVQAGGSLRLSSASSGRIFPDNTMGWYRQAPGKERELVAVITYSGGSTYYADSVKGRFTISRDNAKNTVYLQMNSLKPDDTAVYYCAARDYYIWFAEVDYWGQGTQVTVSS,low polyreactivity
12,QVQLVESGGGLVQAGGSLRLSSASSGSIFTDNGMGCYRHAPGKESELVAAISWRGGTYYADSVKGRFTISRDNAKNTVYLQMNSLKPEDSAVYYSAADVLRISTRLFRGPGFDSWGQGTQVTVSS,low polyreactivity
13,QVQLVESGGGLVQAGGSLRLSSASSGSIIFLYTMGWYRQAPGKERELVAAIDSVGSTNYADSVKGRFTISRDNAKNTVYLHMNSLKPEDTAVYYCNAYFWVGLYEYDYWGQGTQVTVSS,low polyreactivity
14,QVQLVESGGGLVQAGGSLRLSSPASGYIISTYVMGWYRQAPGKERDLVAAITRSGGSTYYADSVKGRFTISRDNAKNNVYLQMNSLKPEDTAVYYCNAYLYLYGLSGRYDYWGQGTQVTVSS,high polyreactivity
15,QVQLVESGGGLVQAGGSLRLSVAASGRTFYSYSMGWYRQAHGKERELVASITNGETKNYADSVKGRFTISRDNAKNTVYLQMNSLKPEDTAVYYCAADDSSRTTYDYWGQGTQVTVSS,low polyreactivity
16,QVQLVESGGGLVQAGGSLRLSWAASGFIFDPNAMGWYRQAPGKERDLVAAISSSGGRTYYADSVKGRFTISRDNAKNTVYLQMNSLKPEDTAVYYCATDTSVQGQEYDYWGQGTQVTVSS,low polyreactivity
17,QVQLVESGGGLVQAGGSLRLSWAASGGTFVPYAMGWYRQAPGTERELVARISKRGGTTYYADSVKGRFTISRDNAKYTVYLQMNSLKPEDTAVYYCAAVLPARGYYWGQGTQVTVSS,high polyreactivity
18,QVQLVESGGGLVQAGGSLRLSWAASGITFDLYAMGWYRPAPGKEREFVATISWTGGTTYYADSVKGRFTISRDNAKNTVDLQMISLKPEVPAASYCNKGSDFFWYDYDYCGQGTQVTVSS,low polyreactivity
19,QVQLVESGGGLVQAGGSLRLSWAASGRIFASYAMGWYRQATGKERELVAAISGSGGSTYYADSVKGRFTMSRDNAKKTVYLQLNSLKPEDTAVYYCAARYRSYWYRYVGYDYWGQGTQVNVSS,high polyreactivity
20,QVQLVESGGGLVQAGGSLRLSWAASGRTFQYYTMGWYRQAPGKERELVAAISTGGSTHYADSVKGRFTISRDNAKNTVYLQMNSLKPEDTAVYYCAALWSRRRSRPRFPGDYWGQGTQVTVSS,high polyreactivity

# Reference: the nanobody polyreactivity screen of Harvey et al. (2022)
